The conditions of data set [1]: mouse, in vivo.
The target in the next data set is T1, LHRH受体 (Homo sapiens, UniProt P30968).
T1 construct: MCF7(LHRH高表达)，UCI107(LHRH不表达); endogenous in cells; host or cells: MCF7 (positive), UCI107 (negative)
T1 sequence (P30968 1-328): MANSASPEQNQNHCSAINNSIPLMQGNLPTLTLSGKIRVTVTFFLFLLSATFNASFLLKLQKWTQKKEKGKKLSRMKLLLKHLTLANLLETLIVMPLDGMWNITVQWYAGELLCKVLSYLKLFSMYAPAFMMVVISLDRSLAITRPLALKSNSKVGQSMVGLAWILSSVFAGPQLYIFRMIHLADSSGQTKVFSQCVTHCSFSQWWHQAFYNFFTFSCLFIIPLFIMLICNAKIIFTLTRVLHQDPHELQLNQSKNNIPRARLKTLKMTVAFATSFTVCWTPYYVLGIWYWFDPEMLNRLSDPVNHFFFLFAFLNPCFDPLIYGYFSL
The experiment in a line: Competitive flow cytometry against fluorescent anti-LHRH receptor antibody (Example 4). It is filed as binding. The following applies: MCF7 (LHRH high), 250nM, on ice 1h. (In general: A flow cytometer gives signals particle by particle.)

In another data set the target is T2, CD13 (Homo sapiens, UniProt P15144).
T2 construct: HUVEC(CD13高表达)，MCF7(CD13不表达); endogenous in cells; host or cells: HUVEC (positive), MCF7 (negative)
Kind of data set: Competitive flow cytometry against fluorescent anti-CD13 antibody (Example 5). The data set is classed as binding. To be noted: HUVEC (CD13 high), 250nM, on ice 1h.

Where two headings read alike, the source gives them in different places. Non-standard residues stand in square brackets, D forms with d. No end group written: not given here. pGlu = O=C1CC[C@@H](C(=O)O)N1

T2 sequence (P15144 whole entry): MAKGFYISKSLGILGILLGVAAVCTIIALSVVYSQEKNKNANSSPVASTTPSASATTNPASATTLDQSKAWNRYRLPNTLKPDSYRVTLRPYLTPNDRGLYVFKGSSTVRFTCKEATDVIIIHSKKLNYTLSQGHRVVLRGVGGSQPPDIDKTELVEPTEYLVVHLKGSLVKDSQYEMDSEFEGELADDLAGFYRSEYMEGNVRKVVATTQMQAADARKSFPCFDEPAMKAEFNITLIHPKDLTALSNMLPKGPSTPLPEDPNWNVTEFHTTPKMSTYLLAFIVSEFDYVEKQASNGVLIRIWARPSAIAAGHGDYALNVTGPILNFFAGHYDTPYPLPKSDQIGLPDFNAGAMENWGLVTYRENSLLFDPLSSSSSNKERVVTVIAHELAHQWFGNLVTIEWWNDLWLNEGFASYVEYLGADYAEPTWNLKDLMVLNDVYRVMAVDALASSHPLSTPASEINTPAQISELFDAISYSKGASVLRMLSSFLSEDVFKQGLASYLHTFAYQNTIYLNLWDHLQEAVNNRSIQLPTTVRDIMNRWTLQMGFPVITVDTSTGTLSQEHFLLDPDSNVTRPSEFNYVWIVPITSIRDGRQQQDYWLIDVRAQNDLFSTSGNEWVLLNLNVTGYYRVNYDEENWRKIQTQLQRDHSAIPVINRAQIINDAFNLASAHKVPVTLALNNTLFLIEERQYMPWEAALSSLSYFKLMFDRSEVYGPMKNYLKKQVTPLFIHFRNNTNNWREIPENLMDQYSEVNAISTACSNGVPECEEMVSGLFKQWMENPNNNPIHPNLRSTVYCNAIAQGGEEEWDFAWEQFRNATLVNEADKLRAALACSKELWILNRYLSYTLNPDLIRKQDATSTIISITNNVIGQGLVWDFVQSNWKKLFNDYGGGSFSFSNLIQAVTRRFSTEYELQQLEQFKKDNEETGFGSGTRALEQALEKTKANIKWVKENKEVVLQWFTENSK

Take “Glp-His-Trp-Ser-Tyr-D-Lys-Leu-Arg-Pro-Gly-NH2 (chain 1 [pGlu]HWSY; chain 2 [dK]LRPG-NH2; numbers in words are those of the source; also: chains 1 and 2 are one continuous chain (Tyr-D-Lys peptide bond)) [LHRH, LHRH肽, 促黄体酮激素释放激素]”: the figures for the serum half-life in data set [1] and in data set [1] (iv) were 2.2 min and 2.6 min, respectively. In addition, the “competitive inhibition of anti-LHRH receptor antibody binding to LHRH receptor” value in the data set with LHRH受体 was “竞争性抑制”.

As for “NGR-DNP: cyclic NGR peptide (chain GGGCNGRC) coupled with DNP by amide condensation (not fully specified (bridges); cysteine pairing not given here; also: DNP conjugated by amide condensation, position not given here)”, the “competitive inhibition of anti-CD13 antibody binding to HUVEC” value with CD13 is reported as “竞争性抑制”.
